Results as given in article PMC10066265, “Inhibitor-3 inhibits Protein Phosphatase 1 via a metal binding dynamic protein–protein interaction” (Nature Communications, 2023).
“And” between values parts separate entries of the source, which are not always exact repeats. Identical values can stand only once.

Key:
His6-PP1α_(7-330) [1] = biological target: T1, His6-PP1α_(7-330) (UniProt P62136 7-330); test: SPR; His6-PP1 captured on a Ni-NTA sensorchip, I3_(27-68) injected; pH = 7.0 (Table 1); two state fit; conditions: both partners purified
T1 construct: Protein Phosphatase 1 alpha (PP1α), residues 7-330; Captured by its His6 tag on the Ni-NTA chip for SPR; Two Mn2+ at the active site when made in E. coli with MnCl2; also called PP1_(7-330); Protein Phosphatase 1; source: bacterial expression (E. coli) as previously described, purified (Ni-NTA, SEC)
T1 sequence (P62136 7-330): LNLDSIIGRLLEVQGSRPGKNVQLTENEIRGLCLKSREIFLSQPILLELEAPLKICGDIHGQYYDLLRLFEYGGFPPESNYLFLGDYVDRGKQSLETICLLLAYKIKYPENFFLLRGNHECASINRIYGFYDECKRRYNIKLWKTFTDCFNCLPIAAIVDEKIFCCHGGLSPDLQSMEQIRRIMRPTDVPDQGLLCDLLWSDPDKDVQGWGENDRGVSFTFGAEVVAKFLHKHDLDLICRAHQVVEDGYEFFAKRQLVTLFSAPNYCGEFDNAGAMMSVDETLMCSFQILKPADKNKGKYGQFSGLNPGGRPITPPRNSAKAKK

His6-PP1α_(7-330) [2] = biological target: T1, His6-PP1α_(7-330); test: cell-based or functional assay
His6-PP1α_(7-330) C273S [3] = biological target: T2, His6-PP1α_(7-330) C273S (UniProt P62136 7-330, C273S); test: cell-based or functional assay
T2 sequence (P62136 7-330 C273S): as the sequence (P62136 7-330) above, with C267S counted along it

His6-PP1α_(7-330) [4] = biological target: T1, His6-PP1α_(7-330); test: SPR; His6-PP1 captured on a Ni-NTA sensorchip, I3_(27-68) injected; pH = 6.5 (Table 1); two state fit; pH 6.5; conditions: both partners purified
His6-PP1α_(7-330) [5] = biological target: T1, His6-PP1α_(7-330); test: SPR; His6-PP1 captured on a Ni-NTA sensorchip, I3_(27-68) injected; pH = 7.5 (Table 1); two state fit; pH 7.5; conditions: both partners purified
His6-PP1α_(7-330) H66K = biological target: T3, His6-PP1α_(7-330) H66K (UniProt P62136 7-330, H66K); test: SPR; His6-PP1 captured on a Ni-NTA sensorchip (NiHC200M), I3 variants injected; 25 °C; 20 mM Tris pH 8.0, 500 mM NaCl, 1 mM MnCl2, 0.5 mM TCEP, 0.05% Tween-20; one-to-one one state or one-to-one two state model; conditions: both partners purified
T3 construct: Protein Phosphatase 1 alpha (PP1α), residues 7-330, H66K; also called PP1 H66K; PP1_(7-330) H66K; source: bacterial expression (E. coli) as previously described, purified (Ni-NTA, SEC)
T3 sequence (P62136 7-330 H66K): as the sequence (P62136 7-330) above, with H60K counted along it

His6-PP1α_(7-330) [6] = biological target: T1, His6-PP1α_(7-330); test: as above; conditions: both partners purified
His6-PP1α_(7-330) H248N = biological target: T4, His6-PP1α_(7-330) H248N (UniProt P62136 7-330, H248N); test: as above; conditions: both partners purified
T4 construct: Protein Phosphatase 1 alpha (PP1α), residues 7-330, H248N; also called PP1_(7-330) H248N; source: bacterial expression (E. coli) as previously described, purified (Ni-NTA, SEC)
T4 sequence (P62136 7-330 H248N): as the sequence (P62136 7-330) above, with H242N counted along it

His6-PP1α_(7-330) C273S [7] = biological target: T2, His6-PP1α_(7-330) C273S; test: as above; conditions: both partners purified
PP1α_(7-330) [8] = biological target: T5, PP1α_(7-330) (UniProt P62136 7-330); test: SPR; as a1 but pH 7.0; His6-PP1 captured on Ni-NTA chip, I3_(27-68) injected; two state model; conditions: both partners purified
T5 construct: Protein Phosphatase 1 alpha (PP1α), residues 7-330; His6-PP1 was captured on the Ni-NTA sensor chip as the SPR ligand; Mn2+ in all buffers; also called Protein Phosphatase 1; His6-PP1; source: E. coli, purified (Ni-NTA, SEC)
T5 sequence (P62136 7-330): as the sequence (P62136 7-330) above

PP1α_(7-330) H66K = biological target: T6, PP1α_(7-330) H66K (UniProt P62136 7-330, H66K); test: SPR; His6-PP1 captured on Ni-NTA chip (NiHC200M), I3 variants injected; 25 °C; 20 mM Tris pH 8.0, 500 mM NaCl, 1 mM MnCl2, 0.5 mM TCEP, 0.05% Tween-20; one-to-one one state or one-to-one two state model (TraceDrawer); conditions: both partners purified
T6 construct: Protein Phosphatase 1 alpha (PP1α), residues 7-330, H66K (lacks the M1 metal); His6-tagged form captured on the Ni-NTA sensor chip; also called PP1 H66K; source: E. coli, purified (Ni-NTA, SEC)
T6 sequence (P62136 7-330 H66K): as the sequence (P62136 7-330) above, with H60K counted along it

PP1α_(7-330) [9] = biological target: T5, PP1α_(7-330); test: as above; conditions: both partners purified
PP1α_(7-330) C273S = biological target: T7, PP1α_(7-330) C273S (UniProt P62136 7-330, C273S); test: as above; conditions: both partners purified
T7 construct: Protein Phosphatase 1 alpha (PP1α), residues 7-330, C273S; His6-tagged form captured on the Ni-NTA sensor chip; also called PP1 C273S; source: E. coli, purified (Ni-NTA, SEC)
T7 sequence (P62136 7-330 C273S): as the sequence (P62136 7-330) above, with C267S counted along it

PP1α_(7-330) H248N = biological target: T8, PP1α_(7-330) H248N (UniProt P62136 7-330, H248N); test: as above; conditions: both partners purified
T8 construct: Protein Phosphatase 1 alpha (PP1α), residues 7-330, H248N; His6-tagged form captured on the Ni-NTA sensor chip; also called PP1 H248N; source: E. coli, purified (Ni-NTA, SEC)
T8 sequence (P62136 7-330 H248N): as the sequence (P62136 7-330) above, with H242N counted along it

PP1α_(7-330) [10] = biological target: T5, PP1α_(7-330); test: SPR; as a1 but pH 6.5; His6-PP1 captured on Ni-NTA chip, I3_(27-68) injected; two state model; conditions: both partners purified
PP1α_(7-330) [11] = biological target: T5, PP1α_(7-330); test: SPR; as a1 but pH 7.5; His6-PP1 captured on Ni-NTA chip, I3_(27-68) injected; two state model; conditions: both partners purified
His6-PP1α_(7-330) [12] = biological target: T1, His6-PP1α_(7-330); test: SPR; His6-PP1 captured on a Ni-NTA sensorchip (NiHC200M), I3 variants injected; 25 °C; 20 mM Tris pH 8.0, 500 mM NaCl, 1 mM MnCl2, 0.5 mM TCEP, 0.05% Tween-20; one-to-one one state or one-to-one two state model; conditions: both partners purified; remark: listed apart in the source

B1: I3_(27-68) (I3 PP1 interaction domain) (domain or fragment, human, UniProt O60927 27-68, looked up)
chain: SLTIKLRKRKPEKKVEWTSDTVDNEHMGRRSSKCCCIYEKPR
notes: PPP1R11), human, residues 27-68; also called WT I3_(27-68); source: E. coli BL21 (DE3), purified (Ni-NTA, TEV, heat 95 °C, SEC); not shown: His6, N-terminal, cleaved; MBP, N-terminal, cleaved
His6-PP1α_(7-330) [1]
  Kd: 16.1 ± 1.1 nM
His6-PP1α_(7-330) [2]
  IC50 of PP1 inhibition (dephosphorylation of the H3pT3 peptide, released Pi): 75 nM
His6-PP1α_(7-330) C273S [3]
  IC50 of PP1 C273S inhibition (dephosphorylation of the H3pT3 peptide, released Pi; 1.33 mM DTT): 85 nM
His6-PP1α_(7-330) [4]
  Kd: 17 ± 0.8 nM
His6-PP1α_(7-330) [5]
  Kd: 9 ± 0.6 nM
His6-PP1α_(7-330) H66K
  Kd: 5.9 ± 0.6 nM
His6-PP1α_(7-330) [6]
  Kd: 9.3 ± 1.1 nM
His6-PP1α_(7-330) H248N
  Kd: 6.6 ± 1.7 nM
His6-PP1α_(7-330) C273S [7]
  Kd: 16.1 ± 0.7 nM

B2: I3_(27-68) (I3 PP1 interaction domain) (domain or fragment, human, UniProt O60927 27-68, looked up)
chain: SLTIKLRKRKPEKKVEWTSDTVDNEHMGRRSSKCCCIYEKPR
notes: PPP1R11), human, residues 27-68; source: E. coli BL21 (DE3), purified (Ni-NTA, TEV cleavage, heat, SEC); not shown: His6, N-terminal, cleaved; MBP, N-terminal, cleaved
PP1α_(7-330) [8]
  Kd: 14.9 nM and 16.2 nM and 17.1 nM
PP1α_(7-330) H66K
  Kd: 6.66 nM and 5.65 nM and 5.52 nM
PP1α_(7-330) [9]
  Kd: 9.87 nM and 7.88 nM and 10.5 nM and 9.04 nM
PP1α_(7-330) C273S
  Kd: 16.9 nM and 15.8 nM and 15.6 nM
PP1α_(7-330) H248N
  Kd: 7.74 nM and 5.38 nM
PP1α_(7-330) [10]
  Kd: 16.2 nM and 17.7 nM and 17.1 nM
PP1α_(7-330) [11]
  Kd: 8.32 nM and 9.2 nM and 9.58 nM

B3: SSC: I3_(27-68) C60S/C61S (domain or fragment, human, UniProt O60927 27-68, looked up)
chain: SLTIKLRKRKPEKKVEWTSDTVDNEHMGRRSSKSSCIYEKPR
notes: PPP1R11), human, residues 27-68; source: E. coli BL21 (DE3), purified (Ni-NTA, TEV, heat 95 °C, SEC); not shown: His6, N-terminal, cleaved; MBP, N-terminal, cleaved
His6-PP1α_(7-330) [2]
  IC50 of PP1 inhibition (dephosphorylation of the H3pT3 peptide, released Pi): 349 nM
His6-PP1α_(7-330) [6]
  Kd: 86.8 ± 3.8 nM
His6-PP1α_(7-330) [12]
  Kd: 86.6 nM
